The record followed here is paper PMC10688287, “RNA binding protein AUF1/HNRNPD regulates nuclear export, stability and translation of SNCA transcripts” (Open Biology, 2023).

The target in this assay is T1, CNOT1 (UniProt A5YKK6 1-2376).
T1 construct: CNOT1, scaffold subunit of the CCR4-NOT deadenylase complex; Endogenous human CNOT1 of the SK-N-SH cells is precipitated by the anti-CNOT1 antibody as well; source: SK-N-SH, transfected (CNOT1 plasmid), in lysate
Put plainly: co-IP; anti-CNOT1 antibody or control IgG, protein A/G magnetic beads; lysates of SK-N-SH cells 48 h after co-transfection with CNOT1 and either empty or AUF1-expressing plasmid; PLB lysis buffer (10 mM HEPES pH 7.0, 100 mM KCl, 5 mM MgCl2, 0.5% NP-40); washes in NT2 buffer with 250 mM NaCl; Western blot. To be noted: partners not purified.

T1 sequence (A5YKK6 whole entry): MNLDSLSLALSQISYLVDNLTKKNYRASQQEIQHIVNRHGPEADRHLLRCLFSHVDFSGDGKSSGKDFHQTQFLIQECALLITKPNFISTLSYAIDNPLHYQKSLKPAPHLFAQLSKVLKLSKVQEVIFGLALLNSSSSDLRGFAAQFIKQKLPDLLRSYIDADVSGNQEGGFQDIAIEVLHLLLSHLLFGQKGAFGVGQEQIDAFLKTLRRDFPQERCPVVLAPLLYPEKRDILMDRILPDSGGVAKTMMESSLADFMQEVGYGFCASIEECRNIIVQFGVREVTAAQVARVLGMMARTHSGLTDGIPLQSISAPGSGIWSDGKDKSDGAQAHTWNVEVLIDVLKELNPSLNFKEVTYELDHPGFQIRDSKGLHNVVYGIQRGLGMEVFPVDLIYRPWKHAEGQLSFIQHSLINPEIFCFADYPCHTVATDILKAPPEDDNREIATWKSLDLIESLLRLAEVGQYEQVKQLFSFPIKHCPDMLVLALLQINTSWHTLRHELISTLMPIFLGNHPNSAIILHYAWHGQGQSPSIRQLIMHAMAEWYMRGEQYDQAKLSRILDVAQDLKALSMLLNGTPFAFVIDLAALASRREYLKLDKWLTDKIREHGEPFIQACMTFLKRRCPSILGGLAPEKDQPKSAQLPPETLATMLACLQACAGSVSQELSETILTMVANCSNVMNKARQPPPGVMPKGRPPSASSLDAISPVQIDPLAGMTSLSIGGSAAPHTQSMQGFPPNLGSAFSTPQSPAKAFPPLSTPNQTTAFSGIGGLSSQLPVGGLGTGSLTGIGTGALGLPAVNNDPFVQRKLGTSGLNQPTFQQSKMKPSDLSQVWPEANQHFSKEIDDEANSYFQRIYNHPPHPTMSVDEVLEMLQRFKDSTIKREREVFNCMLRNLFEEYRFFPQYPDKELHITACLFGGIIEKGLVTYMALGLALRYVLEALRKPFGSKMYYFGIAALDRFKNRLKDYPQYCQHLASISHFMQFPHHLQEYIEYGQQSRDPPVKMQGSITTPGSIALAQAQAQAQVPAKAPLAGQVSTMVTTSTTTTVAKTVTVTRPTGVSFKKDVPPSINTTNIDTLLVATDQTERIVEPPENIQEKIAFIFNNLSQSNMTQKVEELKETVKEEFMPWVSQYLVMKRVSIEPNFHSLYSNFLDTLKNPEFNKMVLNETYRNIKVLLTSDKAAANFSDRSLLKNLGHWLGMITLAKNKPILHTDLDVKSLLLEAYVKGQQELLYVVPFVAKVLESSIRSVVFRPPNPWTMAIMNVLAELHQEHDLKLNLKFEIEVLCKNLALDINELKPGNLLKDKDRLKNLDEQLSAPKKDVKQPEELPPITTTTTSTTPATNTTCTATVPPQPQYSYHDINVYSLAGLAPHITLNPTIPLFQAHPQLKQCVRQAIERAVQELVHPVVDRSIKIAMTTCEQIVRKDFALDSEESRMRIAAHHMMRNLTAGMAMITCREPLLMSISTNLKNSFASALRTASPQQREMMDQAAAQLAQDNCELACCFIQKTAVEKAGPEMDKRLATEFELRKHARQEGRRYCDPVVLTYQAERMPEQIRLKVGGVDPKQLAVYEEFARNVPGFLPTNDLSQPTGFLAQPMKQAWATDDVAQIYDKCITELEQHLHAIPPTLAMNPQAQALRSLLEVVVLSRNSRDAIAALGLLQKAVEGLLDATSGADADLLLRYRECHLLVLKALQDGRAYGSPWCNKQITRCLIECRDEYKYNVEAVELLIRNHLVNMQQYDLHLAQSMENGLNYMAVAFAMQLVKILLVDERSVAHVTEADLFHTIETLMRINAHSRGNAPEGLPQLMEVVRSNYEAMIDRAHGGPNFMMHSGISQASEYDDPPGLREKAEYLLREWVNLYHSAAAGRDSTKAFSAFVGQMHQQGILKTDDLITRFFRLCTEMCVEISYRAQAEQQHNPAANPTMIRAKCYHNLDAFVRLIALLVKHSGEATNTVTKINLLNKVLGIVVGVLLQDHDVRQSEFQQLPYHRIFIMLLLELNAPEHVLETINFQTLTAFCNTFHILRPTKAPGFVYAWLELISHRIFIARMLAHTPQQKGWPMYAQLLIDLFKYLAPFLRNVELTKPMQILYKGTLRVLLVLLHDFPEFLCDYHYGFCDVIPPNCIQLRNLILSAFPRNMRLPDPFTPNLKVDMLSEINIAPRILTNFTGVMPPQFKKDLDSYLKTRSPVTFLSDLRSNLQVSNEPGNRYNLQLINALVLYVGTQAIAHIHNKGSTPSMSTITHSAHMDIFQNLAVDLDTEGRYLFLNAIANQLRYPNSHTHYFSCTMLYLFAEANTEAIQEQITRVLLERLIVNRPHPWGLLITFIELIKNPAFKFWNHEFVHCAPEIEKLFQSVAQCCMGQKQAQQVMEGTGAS

B1: AUF1 (heterogeneous nuclear ribonucleoprotein D, HNRNPD), 42 kDa protein (natural protein, human, UniProt Q14103-2 1-336, looked up)
chain: MSEEQFGGDGAAAAATAAVGGSAGEQEGAMVAATQGAAAAAGSGAGTGGGTASGGTEGGSAESEGAKIDASKNEEDEGKMFIGGLSWDTTKKDLKDYFSKFGEVVDCTLKLDPITGRSRGFGFVLFKESESVDKVMDQKEHKLNGKVIDPKRAKAMKTKEPVKKIFVGGLSPDTPEEKIREYFGGFGEVESIELPMDNKTNKRRGFCFITFKEEEPVKKIMEKKYHNVGLSKCEIKVAMSKEQYQQQQQWGSRGGFAGRARGRGGGPSQNWNQGYSNYWNQGYGNYGYNSQGYGGYGGYDYTGYNNYYGYGDYSNQQSGYGKVSRRGGHQNSYKPY
notes: human AUF1/HNRNPD CDS encoding the 42 kDa protein (p42 isoform), amplified from SK-N-SH cDNA and cloned between KpnI and NotI of pENTR-GD; The co-IP was done in cells transfected with empty or AUF1-expressing plasmid; the anti-AUF1 blot also detects the endogenous AUF1 isoforms (p37, p40, p42, p45) of SK-N-SH cells; also called p42; source: SK-N-SH, transfected (AUF1-expressing plasmid), in lysate
In the case of B1, the “fold enrichment in the CNOT1 immunoprecipitate” value was 1.6 fold.
